Measurements from patent US20160152728A1 (AFFEMED, published 2016).

Experiments:
[1] = target: T1, EGFRvIII-Fc fusion antigen (human, UniProt P00533 25-645); experiment: SPR Biacore T200, EGFRvIII-Fc captured via anti-hu Fc, scFv analyte, 1:1 model;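 note: Multi-cycle kinetics on a CM5 chip in HBS-P+ running buffer, 180 s scFv association then 540 s dissociation, with blank flow cell signals subtracted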
Description: Anti-hu Fc IgG CM5-chip was prepared by covalent amine coupling by using the Amine-Coupling-Kit (GE), according to the instructions of the manufacturer. The IgG was diluted in the provided immobilization buffer (10 mM sodium acetate, pH 5.0) to a concentration of 25 μg/ml. For the coupling procedure, the predefined method “Amine” of the Biacore T200 control software was applied. A target level between 5000-10000 RU for all 4 flow cells was reached. The surface of the chip was activated with EDC/NHS before injecting the recombinant protein solutions. Free binding sites on the surface were blocked with ethanolamine. 1×HBS-P+ was selected as a running buffer for the entire coupling procedure.
Flowcell 1 and 3 were blanks. 1×HBS-P+ was used as running buffer for the entire procedure. The scFv antibodies were injected at a flow rate of 30 μL/min for 180 sec over all four flowcells. Signals measured in the flowcell 1 without captured antigen were subtracted from signals in the flowcell 2 to correct the binding curves for background binding. Signals measured in the flowcell 3 without captured antigen were subtracted from signals in the flowcell 4 to correct the binding curves for background binding. After 540 sec dissociation time the chip was regenerated as described below.
The Kinetics of scFv antibodies were determined in MCK (Multi Cycle Kinetic) measurements. For estimation of apparent binding affinities the binding curves were evaluated using the “Kinetic” method included in the Biacore evaluation software. By this method the binding curves are globally fitted by the software using the “Langmuir 1:1 interaction model”.

[2] = target: T2, EGFRvIII expressed on cells (CHO^EGFRvIII, F98^EGFRvIII) (UniProt P00533 25-1210); experiment: flow cytometry on F98^EGFRvIII cells; scFv detected with anti-His followed by FITC-conj. goat anti-mouse IgG, mean fluorescence intensity
T2 construct: whole, on cells; the vIII deletion must be applied; also called deletion mutant EGFRvIII

[3] = target: T3, wild type EGFR expressed on cells (CHO^EGFR, F98^EGFR) (human, UniProt P00533 25-1210); experiment: flow cytometry on F98^EGFR cells; scFv detected with anti-His followed by FITC-conj. goat anti-mouse IgG
T3 construct: whole, on cells; also called native EGFR; EGFRwt
Description: After a second washing cycle, the cells were incubated with 0.1 mL of 15 μg/mL FITC-conjugated goat anti-mouse IgG antibodies under the same conditions as before. As a control, cells were incubated with the anti-His IgG 13/45/31 followed by the FITC-conjugated goat anti-mouse IgG antibodies without scFvs. The cells were then washed again and resuspended in 0.2 mL of FACS buffer containing 2 μg/mL propidium iodide in order to exclude dead cells. The fluorescence of 1×10⁴ living cells was measured using a Beckman-Coulter FC500 MPL flow cytometer using the MXP software (Beckman-Coulter, Krefeld, Germany) or a Millipore Guava EasyCyte flow cytometer using the Incyte software (Merck Millipore, Schwalbach, Germany). Mean fluorescence intensities of the cell samples were calculated using CXP software (Beckman-Coulter, Krefeld, Germany) or Incyte software (Merck Millipore, Schwalbach, Germany).
In case of analysis with Beckman-Coulter FC500 MPL flow cytometer 0.5×10⁶ cells/staining and in case of Millipore Guava EasyCyte flow cytometer only 0.25×10⁶ cells/staining were used.

[4] = target: T2, EGFRvIII expressed on cells …; experiment: cell-based or functional assay
[5] = target: T1, EGFRvIII-Fc fusion antigen; experiment: ELISA on coated EGFRvIII-Fc; TandAb detected with Protein L-HRP, Abs(450nm) [EGFRvIII binding]

Binder | KD improvement factor vs parental scFv Li3G30 [1] [fold] | Kd [1] [nM] | kOFF improvement factor vs parental scFv Li3G30 [1] [fold] | kON improvement factor vs parental scFv Li3G30 [1] [fold] | koff [1] [s⁻¹] | kon [1] [M⁻¹ s⁻¹] | EC50 (read off the curve) [2] [nM] | binding result [3] | EC50 in the cytotoxicity assay (CHO^EGFRvIII target cells) [4] [nM] | EC50 (read off the curve) [5] [nM]
scFv 469 (scFv, V domains shown, One-chain scFv, His-tagged) VH: EVQLVQSGAEVKKPGESLKISCKGSGYSFNSYWIGWVRQMPGKGLEWMGIIYPGDSDTRYSPSFQGQVTISADKSISTAYLQWSSLKASDTAMYYCARLGSSWTNDAFDIWGQGTLVTVSS VL: SYELTQPPSVSVSPGQTARITCSGDTLPKQYAYWYQQKPGQAPVLVIYKDSERPSGIPERFSGSSSGTTVTLTISGVQAEDEADYYCQSVDVSGTYVVFGGGTKLTVL | 10.8 | 0.72 | 2 | 5.2 | 0.0006 | 830000 | 2 | – | – | –
scFv 479 (scFv, V domains shown, One-chain scFv, His-tagged) VH: EVQLVQSGAEVKKPGESLKISCKGSGYDFSSYWIGWVRQMPGKGLEWMGIIYPGDSDTIYSPSFQGQVTISADKSISTAYLQWSSLKASDTAMYYCARLGSSWTNDAFDIWGQGTLVTVSS VL: SYELTQPPSVSVSPGQTARITCSGAALPEQYAYWYQQKPGQAPVLVIYKDSERPSGIPERFSGSSSGTTVTLTISGVQAEDEADYYCQSVDSSGTFYVFGGGTKLTVL | 3.1 | 2.54 | 1.3 | 2.4 | 0.00096 | 380000 | – | – | – | –
scFv 475 (scFv, V domains shown, One-chain scFv, His-tagged) VH: EVQLVQSGAEVKKPGESLKISCKGSGYSFTSYWIGWVRQMPGKGLEWMGIIYPDDSDTRYSPSFQGQVTISADKSISTAYLQWSSLKASDTAMYYCARLGSSWTNDAFDIWGQGTLVTVSS VL: SYELTQPPSVSVSPGQTARITCSGDALPKQYAYWYQQKPGQAPVLVIYKDTERPSGIPERFSGSSSGTTVTLTISGVQAEDEADYYCQSVDSSGTYVVFGGGTKLTVL | 11.1 | 0.7 | 1.5 | 7.5 | 0.0008 | 1.2e+06 | ~2 | no binding (tested: about 3300 nM) | – | –
scFv 473 (scFv, V domains shown, One-chain scFv, His-tagged) VH: EVQLVQSGAEVKKPGESLKISCKGSGYSFSSYWIGWVRQMPGKGLEWMGIIYPGDSDTRYSPSFQGQVTISADKSISTAYLQWSSLKASDTAMYYCARLGSSWTNDAFDIWGQGTLVTVSS VL: SYELTQPPSVSVSPGQTARITCSGHALPSQYAYWYQQKPGQAPVLVIYKDTERPSGIPERFSGSSSGTTVTLTISGVQAEDEADYYCQSVDSSGTSVIFGGGTKLTVL | 11.6 | 0.67 | 1.5 | 7.5 | 0.0008 | 1.2e+06 | ~2 | no binding (tested: about 3300 nM) | – | –
scFv 478 (scFv, V domains shown, One-chain scFv, His-tagged) VH: EVQLVQSGAEVKKPGESLKISCKGSGYSFNSYWIGWVRQMPGKGLEWMGIIYPGDEDTRYSPSFQGQVTISADKSISTAYLQWSSLKASDTAMYYCARLGSSWTNDAFDIWGQGTLVTVSS VL: SYELTQPPSVSVSPGQTARITCSGDALPKQYAYWYQQKPGQAPVLVIYKDTERPSGIPERFSGSSSGTTVTLTISGVQAEDEADYYCQSVDPSGTYVVFGGGTKLTVL | 49.6 | 0.16 | 5.2 | 8.8 | 0.00023 | 1.4e+06 | ~2 | no binding | – | –
scFv 470 (scFv, V domains shown, One-chain scFv, His-tagged) VH: EVQLVQSGAEVKKPGESLKISCKGSGYSFNSYWIGWVRQMPGKGLEWMGIIYPGDSDTRYSPSFQGQVTISADKSISTAYLQWSSLKASDTAMYYCARLGSSWTNDAFDIWGQGTLVTVSS VL: SYELTQPPSVSVSPGQTARITCSGDALDKQYAYWYQQKPGQAPVLVIYKDSERPSGIPERFSGSSSGTTVTLTISGVQAEDEADYYCQSVDSSETYVVFGGGTKLTVL | 6.6 | 1.18 | 2.4 | 2.7 | 0.0005 | 430000 | ~2 | no binding (tested: about 3300 nM) | – | –
scFv 477 (scFv, V domains shown, One-chain scFv, His-tagged) VH: EVQLVQSGAEVKKPGESLKISCKGSGYSFSSYWIGWVRQMPGKGLEWMGIIYPGDSDTRYSPSFQGQVTISADKSISTAYLQWSSLKASDTAMYYCARLGSSWTNDAFDIWGQGTLVTVSS VL: SYELTQPPSVSVSPGQTARITCSGDYLPKQYAYWYQQKPGQAPVLVIYKDTERPSGIPERFSGSSSGTTVTLTISGVQAEDEADYYCQSADASGTYYVFGGGTKLTVL | 6 | 1.3 | 0.3 | 18.8 | 0.0038 | 3e+06 | ~2 | no binding (tested: about 3300 nM) | – | –
scFv 476 (scFv, V domains shown, One-chain scFv, His-tagged) VH: EVQLVQSGAEVKKPGESLKISCKGSGYSFTSYWIGWVRQMPGKGLEWMGIIYPGDSDTRYSPSFQGQVTISADKSISTAYLQWSSLKASDTAMYYCARLGSSWTNDAFDIWGQGTLVTVSS VL: SYELTQPPSVSVSPGQTARITCSGDNIPHQYAYWYQQKPGQAPVLVIYKDTERPAGIPERFSGSSSGTTVTLTISGVQAEDEADYYCQSADPTGAYLVFGGGTKLTVL | 5 | 1.56 | 1.1 | 4.3 | 0.0011 | 690000 | ~2 | no binding (tested: about 3300 nM) | – | –
scFv 471 (scFv, V domains shown, One-chain scFv, His-tagged) VH: EVQLVQSGAEVKKPGESLKISCKGSGYSFNSYWIGWVRQMPGKGLEWMGIIYPGDSANRYSPSFQGQVTISADKSISTAYLQWSSLKASDTAMYYCARLGSSWTNDAFDIWGQGTLVTVSS VL: SYELTQPPSVSVSPGQTARITCSGDYLPKQYAYWYQQKPGQAPVLVIYKDTERPSGIPERFSGSSSGTTVTLTISGVQAEDEADYYCQSVDSSHPSVVFGGGTKLTVL | 29.9 | 0.26 | 4.1 | 6.9 | 0.00029 | 1.1e+06 | ~2 | no binding (tested: about 3300 nM) | – | –
scFv 474 (scFv, V domains shown, One-chain scFv, His-tagged) VH: EVQLVQSGAEVKKPGESLKISCKGSGYSFSHYWIGWVRQMPGKGLEWMGITYPGDVDTRYDPSFQGQVTISADKSISTAYLQWSSLKASDTAMYYCARLGSSWTNDAFDIWGQGTLVTVSS VL: SYELTQPPSVSVSPGQTARITCSGDALPKTYAYWYQQKPGQAPVLVIYKDTERPSGIPERFSGSSSGTTVTLTISGVQAEDEADYYCQSADSSGTYLVFGGGTKLTVL | 16.3 | 0.48 | 0.8 | 20.6 | 0.0016 | 3.3e+06 | ~2 | no binding (tested: about 3300 nM) | – | –
scFv 472 (scFv, V domains shown, One-chain scFv, His-tagged) VH: EVQLVQSGAEVKKPGESLKISCKGSGYSFGYYWIGWVRQMPGKGLEWMGIIYPGDSHTRYSPSFQGQVTISADKSISTAYLQWSSLKASDTAMYYCARLGSSWTNDAFDIWGQGTLVTVSS VL: SYELTQPPSVSVSPGQTARITCSGDALPKQYAYWYQQKPGQAPVLVIYKDTERPSGIPERFSGSSSGTTVTLTISGVQAEDEADYYCQSVDSSGTQVVFGGGTKLTVL | 96.3 | 0.08 | 4 | 23.8 | 0.0003 | 3.8e+06 | ~1 | no binding (tested: about 3300 nM) | – | –
EGFRvIII/CD3 tandem diabody with parental EGFRvIII binding domain Li3G30 and CD3 domain v64, domain order (i) VL^CD3-VH^EGFRvIII-VL^EGFRvIII-VH^CD3 … (bispecific antibody, part only; not given: CD3 v64 domain and linkers, not shown: small tags and cut ends) chain, part: EVQLVQSGAEVKKPGESLKISCKGSGYSFTSYWIGWVRQMPGKGLEWMGIIYPGDSDTRYSPSFQGQVTISADKSISTAYLQWSSLKASDTAMYYCARLGSSWTNDAFDIWGQGTMVTVSSSYELTQPPSVSVSPGQTARITCSGDALPKQYAYWYQQKPGQAPVLVIYKDSERPSGIPERFSGSSSGTTVTLTISGVQAEDEADYYCQSADSSGTPLIVFGTGTKLTVL | – | – | – | – | – | – | – | – | 0.025 | –
TandAb EGFRvIII(ABC479)/CD3, domain order (iv) VH^EGFRvIII-VL^CD3-VH^CD3-VL^EGFRvIII (bispecific antibody, part only; not given: CD3 domain and linkers, part only) tandem diabody polypeptide (homodimer), part: QSGAEVKKPGEVQLVESLKISCKGSGYDFSSYWIGWVRQMPGKGLEWMGIIYPGDSDTIYSPSFQGQVTISADKSISTAYLQWSSLKASDTAMYYCARLGSSWTNDAFDIWGQGTLVTVSSSYELTQPPSVSVSPGQTARITCSGAALPEQYAYWYQQKPGQAPVLVIYKDSERPSGIPERFSGSSSGTTVTLTISGVQAEDEADYYCQSVDSSGTFYVFGGGTKLTVL | – | – | – | – | – | – | – | – | – | 0.9
